The target in assay [1] is T1, human recombinant MC1 receptor (Homo sapiens, UniProt Q01726).
T1 construct: host or cells: CHO-K1
In words: MC1R activation, cAMP HTRF assay in CHO-K1 cells. The class given is cell-based. As for the experimental part:
MCR-activation assays were performed by means of a cAMP HTRF (homogeneous time resolved fluorescence) assay for Gs-coupled receptors (cAMP Gs dynamic kit, Cisbio bioassays, 62AM4PEC). CHO-K1 cells expressing human recombinant MC1 receptor (EuroscreenFast, Gosselies, Belgium) (or MC2R, MC3R, MC4R, MC5R) were grown prior to the test in media without antibiotic. They were detached by gentle flushing with PBS-EDTA (5 mM EDTA), recovered by centrifugation, and resuspended in assay buffer (5 mM KCl, 1.25 mM MgSO4, 124 mM NaCl, 25 mM HEPES, 13.3 mM Glucose, 1.25 mM KH2PO4, 1.45 mM CaCl2, 0.5 g/L BSA, supplemented with 1 mM IBMX). Dose response curves were performed in parallel with the reference compounds. For agonist test (96-well), 12 µL of cells were mixed with 12 µL of the test compound diluted at increasing concentrations in assay buffer, and then incubated for 30 min at room temperature. After addition of the lysis buffer and 1 h incubation, fluorescence signal was measured, according to the manufacturer’s specifications, with the homogeneous time resolved fluorescence (HTRF) kit.
In general terms: In TR-FRET formats the signal depends on donor and acceptor labels being close together.

The subject of assay [2] is human abdominal skin ex vivo. In words: Stimulation of pigmentation in human abdominal skin ex vivo (Fontana-Masson melanin quantification). The class given is cell-based. The conditions noted are these: 200 µM peptide, topical, six days. As for the experimental part:
Following declaration of Helsinki principles (DoH-Oct2013, World Medical Association, Ferney-Voltaire, France), human skin samples were obtained from elective plastic surgery after informed consent was obtained. For the two experiments shown in Figure 2, Figure 3 and Figure 4, we had one person with an individual topology angle (ITA°) of 18, and one person with an ITA° of 39 [69]. The skin samples were cut in pieces of 8 × 3 mm and cultured up to day 6. Skin samples were cultured in an air–liquid interface in a perforated ring of stainless steel in contact with culture medium (modified Williams’ E medium). The culture medium was renewed every three days (i.e., day 0–3). Compounds were added daily in DMSO at 4 µL volume. At day 6, the skin samples were fixed in formalin, embedded in paraplast, and cut at the microtome for histochemical staining and consequent image analysis. Six skin biopsies were used for each single treatment.
Two skin biopsies for each treatment were weighed and, in each case, reduced in the dermal portion, in order to have approximately the same weight for all of them. Samples were then washed and processed with methylthiazolyldiphenyl-tetrazolium bromide (MTT). The color intensity, that is directly proportional to skin vitality, was measured with a plate reader at a wavelength of 570 nm. For melanin quantification, skin sections were stained with a modified Fontana-Masson stain that dyes melanin argentaffin granules in black/dark grey. The amount of melanin present in each slide was evaluated by estimating grey intensity and distribution within the sections using ImageJ application (NIH-USA). Two slides of each skin sample were processed by image acquisition and related analysis (i.e., 12 images for each treatment).
Figure 2 Stimulation of pigmentation by MC1R-agonist peptides ex vivo. Melanin was quantified on skin sections using ImageJ software (NIH, USA). Human abdominal skin was topically treated with peptides at various concentrations for six days. * p < 0.05 vs vehicle by unpaired Student’s t-test. […]

Assay [3] relates to B16 murine melanoma cells. Description: Total melanin synthesis in mouse melanoma cells. The settings on record: 72 h incubation. The class given is cell-based. As for the experimental part: B16 murine melanoma cells, which are highly responsive towards stimulation with alpha-melanocyte stimulating hormone (alpha-MSH), were grown in Dulbecco’s modified eagle medium (DMEM) with 1 g/L glucose supplemented with 3 g/L glucose, 2 mM L-glutamine, 50 U/mL Penicillin, 50 µg/mL Streptomycin, and 10% fetal calf serum. They were kept at 37 °C in a 5% CO2 atmosphere. Cells were grown for 24 h and then medium was replaced with medium containing the test or reference (NDP-alpha-MSH) compounds. After 72 h, total (intracellular and extracellular) melanin content was determined by absorbance spectroscopy at 405 nm. The results were quantified against a melanin standard curve.
Figure 1 Total melanin synthesis in mouse melanoma cells stimulated with MC1R-agonist peptides. MC1R-agonist peptides were incubated at various concentrations together with the near confluent mouse melanoma cell line B16F10. NDP-alpha-MSH at 100 nM was used as the reference and set to 100% melanin (red line). Error bars represent standard error of the mean of three experiments.

In assay [4] the target is Melanocortin-1 receptor (MC1R), human recombinant, in CHO-K1 cells (human) (UniProt Q01726).
The target in assay [5] is Serotonin receptor 5-HT2AR, human (human) (UniProt P28223).
Assay [6] concerns the target Melanocortin-4 receptor (MC4R), recombinant, in CHO-K1 cells (human) (UniProt P32245).
The next assay concerns the target T2, Melatonin receptor MT2R (UniProt P49286).
T2 sequence: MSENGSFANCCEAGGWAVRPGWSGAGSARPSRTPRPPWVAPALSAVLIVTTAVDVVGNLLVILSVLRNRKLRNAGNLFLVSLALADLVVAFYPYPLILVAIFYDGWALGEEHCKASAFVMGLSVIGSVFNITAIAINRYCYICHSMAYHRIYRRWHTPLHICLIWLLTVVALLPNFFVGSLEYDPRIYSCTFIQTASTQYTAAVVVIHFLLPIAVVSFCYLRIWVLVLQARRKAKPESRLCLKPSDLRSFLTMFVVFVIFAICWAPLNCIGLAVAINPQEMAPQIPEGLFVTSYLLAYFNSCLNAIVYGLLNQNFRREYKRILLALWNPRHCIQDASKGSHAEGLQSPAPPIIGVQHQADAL

Assay [7] has as its target Opioid receptor OP1R (human delta opioid receptor) (human) (UniProt P41143).
Assay [8] deals with Endothelin B-receptor (ETBR), human (human) (UniProt P24530).
Assay [9] addresses Opioid receptor OP3R (human mu opioid receptor) (human) (UniProt P35372).
In assay [10] the target is Opioid receptor OP2R (human kappa opioid receptor) (human) (UniProt P41145).
For the next assay, the target named is Melatonin receptor MT1R (UniProt P48039).
Assay [11] concerns the target Melanin-concentrating hormone receptor MCH1R, human (human) (UniProt Q99705).
Assay [12] concerns the target Melanin-concentrating hormone receptor MCH2R, human (human) (UniProt Q969V1).
In assay [13] the target is Melanocortin-3 receptor (MC3R), recombinant, in CHO-K1 cells (human) (UniProt P41968).
For assay [14], the target named is Melanocortin-2 receptor (MC2R), recombinant, in CHO-K1 cells (human) (UniProt Q01718).
Assay [15] deals with Melanocortin-5 receptor (MC5R), recombinant, in CHO-K1 cells (human) (UniProt P33032).

Data on 15 molecules can be found in article PMC6940745 (International Journal of Molecular Sciences, 2019).

Where a SMILES comes first, the peptide text is derived from it. [ ]: non-standard residue; d: D form. The star is where a group is joined. Gly(N(CH2)2(3-indolyl)) = O=C(O)CNCCc1c[nH]c2ccccc12; N(indol-3-ylmethyl)Gly = O=C(O)CNCc1c[nH]c2ccccc12; 2Nal = N[C@@H](Cc1ccc2ccccc2c1)C(=O)O; d2Nal = N[C@H](Cc1ccc2ccccc2c1)C(=O)O; Dab = NCC[C@H](N)C(=O)O; Bz = O=C(c1ccccc1)*; NPr2 = CCCN(CCC)*

Usually EC50 stands for the concentration needed to bring the measured effect to its halfway point.

T1 sequence (Q01726 whole entry): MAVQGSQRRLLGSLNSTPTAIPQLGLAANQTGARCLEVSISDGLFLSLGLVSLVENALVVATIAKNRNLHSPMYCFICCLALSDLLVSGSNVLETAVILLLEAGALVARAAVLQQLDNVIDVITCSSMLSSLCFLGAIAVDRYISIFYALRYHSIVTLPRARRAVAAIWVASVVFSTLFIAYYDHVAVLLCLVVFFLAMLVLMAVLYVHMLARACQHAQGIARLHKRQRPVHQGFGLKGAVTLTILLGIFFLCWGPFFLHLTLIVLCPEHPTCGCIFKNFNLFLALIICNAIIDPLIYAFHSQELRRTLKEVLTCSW
Chain of Melanocortin-1 receptor (MC1R), human recombinant, in CHO-K1 cells (human) (Q01726 whole entry): as above
Chain of Melanin-concentrating hormone receptor MCH1R, human (human) (Q99705 whole entry): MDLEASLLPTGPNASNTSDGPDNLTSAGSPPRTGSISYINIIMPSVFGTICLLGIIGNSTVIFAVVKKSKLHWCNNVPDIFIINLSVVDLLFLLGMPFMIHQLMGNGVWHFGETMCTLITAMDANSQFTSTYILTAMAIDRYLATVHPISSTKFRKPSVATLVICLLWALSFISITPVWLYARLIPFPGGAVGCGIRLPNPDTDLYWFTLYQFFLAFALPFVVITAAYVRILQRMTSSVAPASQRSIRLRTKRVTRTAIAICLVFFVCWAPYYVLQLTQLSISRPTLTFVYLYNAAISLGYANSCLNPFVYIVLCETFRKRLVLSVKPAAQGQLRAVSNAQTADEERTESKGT
Chain of Melanocortin-3 receptor (MC3R), recombinant, in CHO-K1 cells (human) (P41968 whole entry): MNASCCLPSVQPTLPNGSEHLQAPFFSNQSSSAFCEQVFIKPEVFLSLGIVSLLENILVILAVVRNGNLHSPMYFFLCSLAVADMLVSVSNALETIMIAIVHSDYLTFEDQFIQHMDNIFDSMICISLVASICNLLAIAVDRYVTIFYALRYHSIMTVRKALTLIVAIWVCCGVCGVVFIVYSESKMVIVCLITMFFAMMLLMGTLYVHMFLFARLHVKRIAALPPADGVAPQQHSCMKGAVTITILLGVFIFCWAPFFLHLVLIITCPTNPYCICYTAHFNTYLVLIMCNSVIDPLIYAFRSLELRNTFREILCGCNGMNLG
Chain of Melatonin receptor MT1R (P48039 whole entry): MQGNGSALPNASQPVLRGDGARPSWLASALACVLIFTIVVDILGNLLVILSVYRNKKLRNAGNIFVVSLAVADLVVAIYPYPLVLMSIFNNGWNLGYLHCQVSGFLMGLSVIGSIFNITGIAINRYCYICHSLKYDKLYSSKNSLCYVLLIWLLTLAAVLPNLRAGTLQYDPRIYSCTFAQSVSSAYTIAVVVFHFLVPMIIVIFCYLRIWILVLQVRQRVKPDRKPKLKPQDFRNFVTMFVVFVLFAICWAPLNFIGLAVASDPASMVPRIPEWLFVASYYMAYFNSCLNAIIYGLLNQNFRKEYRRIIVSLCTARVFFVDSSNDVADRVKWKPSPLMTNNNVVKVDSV
Chain of Melanocortin-4 receptor (MC4R), recombinant, in CHO-K1 cells (human) (P32245 whole entry): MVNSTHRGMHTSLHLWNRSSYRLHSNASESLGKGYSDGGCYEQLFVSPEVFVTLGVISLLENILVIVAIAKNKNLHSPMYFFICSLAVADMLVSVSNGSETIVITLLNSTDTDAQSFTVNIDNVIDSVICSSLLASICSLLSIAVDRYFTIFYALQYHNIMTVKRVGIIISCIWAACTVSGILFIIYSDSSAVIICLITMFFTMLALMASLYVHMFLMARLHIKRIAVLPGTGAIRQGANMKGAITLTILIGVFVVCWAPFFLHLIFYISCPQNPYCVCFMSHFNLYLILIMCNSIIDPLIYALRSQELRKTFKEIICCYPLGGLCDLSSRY
Chain of Melanocortin-5 receptor (MC5R), recombinant, in CHO-K1 cells (human) (P33032 whole entry): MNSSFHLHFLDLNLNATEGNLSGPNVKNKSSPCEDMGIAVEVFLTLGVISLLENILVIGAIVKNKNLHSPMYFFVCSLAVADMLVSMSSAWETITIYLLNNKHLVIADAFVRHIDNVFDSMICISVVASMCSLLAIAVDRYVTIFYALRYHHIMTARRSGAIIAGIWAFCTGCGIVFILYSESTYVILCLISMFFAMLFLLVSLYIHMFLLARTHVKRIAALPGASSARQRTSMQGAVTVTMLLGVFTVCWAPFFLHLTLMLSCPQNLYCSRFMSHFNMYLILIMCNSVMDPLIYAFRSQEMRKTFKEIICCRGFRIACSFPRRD
Chain of Endothelin B-receptor (ETBR), human (human) (P24530 27-442): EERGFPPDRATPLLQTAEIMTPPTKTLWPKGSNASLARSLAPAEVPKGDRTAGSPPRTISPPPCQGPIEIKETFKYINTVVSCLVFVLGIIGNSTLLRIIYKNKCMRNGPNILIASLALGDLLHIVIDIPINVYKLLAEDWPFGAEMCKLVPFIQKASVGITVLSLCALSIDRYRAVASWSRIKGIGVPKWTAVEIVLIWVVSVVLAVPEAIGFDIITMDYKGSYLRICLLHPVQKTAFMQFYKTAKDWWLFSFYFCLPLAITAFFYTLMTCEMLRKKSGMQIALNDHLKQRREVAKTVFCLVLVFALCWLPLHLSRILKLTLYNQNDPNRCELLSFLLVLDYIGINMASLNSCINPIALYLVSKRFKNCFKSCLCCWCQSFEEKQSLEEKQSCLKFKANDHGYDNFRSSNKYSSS
Chain of Melanin-concentrating hormone receptor MCH2R, human (human) (Q969V1 whole entry): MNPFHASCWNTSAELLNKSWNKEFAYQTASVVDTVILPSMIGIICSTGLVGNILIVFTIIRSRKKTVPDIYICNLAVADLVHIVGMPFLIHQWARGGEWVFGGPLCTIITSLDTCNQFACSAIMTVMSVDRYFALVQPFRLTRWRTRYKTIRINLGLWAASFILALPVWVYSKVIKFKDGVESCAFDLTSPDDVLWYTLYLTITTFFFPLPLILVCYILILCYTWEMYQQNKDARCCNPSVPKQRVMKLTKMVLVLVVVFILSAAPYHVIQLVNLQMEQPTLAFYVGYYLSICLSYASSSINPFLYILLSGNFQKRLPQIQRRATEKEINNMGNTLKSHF
Chain of Melanocortin-2 receptor (MC2R), recombinant, in CHO-K1 cells (human) (Q01718 whole entry): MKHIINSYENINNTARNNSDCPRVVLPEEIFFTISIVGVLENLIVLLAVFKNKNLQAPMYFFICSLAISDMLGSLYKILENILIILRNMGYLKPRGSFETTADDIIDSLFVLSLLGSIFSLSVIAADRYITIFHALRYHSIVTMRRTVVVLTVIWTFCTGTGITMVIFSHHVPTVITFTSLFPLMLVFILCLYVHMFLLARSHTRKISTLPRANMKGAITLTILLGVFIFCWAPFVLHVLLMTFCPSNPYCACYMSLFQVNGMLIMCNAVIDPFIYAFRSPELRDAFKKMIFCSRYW

For the molecule `N=C(N)NCCC[C@H](NC(=O)[C@@H](Cc1ccccc1)NC(=O)[C@H](Cc1c[nH]cn1)NC(=O)CNC(=O)c1ccccc1)C(=O)N[C@@H](Cc1c[nH]c2ccccc12)C(N)=O` [Peptide 1] (Bz-GH[dF]RW-NH2), the concentration for a half-maximal effect (EC50) in assay [1] was 0.041 nM. Besides, the “Stimulation of pigmentation compared to vehicle-treated control tissue” value in [2] was “up to 21%”. For the same molecule, the “Concentration at which maximal melanin synthesis activity comparable to 100 nM NDP-alpha-MSH is reached” value in [3] is on record as “around 12.3 nM”.

Regarding `N=C(N)NCCC[C@H](NC(=O)[C@@H](Cc1ccccc1)NC(=O)[C@H](Cc1c[nH]cn1)NC(=O)CNC(=O)c1ccccc1)C(=O)N[C@@H](Cc1ccc2ccccc2c1)C(N)=O` [Peptide 2] (Bz-GH[dF]R[2Nal]-NH2), the half-maximal effective concentration (EC50) in [1] was determined as 0.11 nM. Besides, the “Concentration at which maximal melanin synthesis activity comparable to 100 nM NDP-alpha-MSH is reached” value in assay [3] was “around 12.3 nM”.

On to `N=C(N)NCCC[C@H](NC(=O)[C@@H](Cc1ccccc1)NC(=O)[C@H](Cc1c[nH]cn1)NC(=O)CNC(=O)c1ccccc1)C(=O)N[C@H](Cc1ccc2ccccc2c1)C(N)=O` [Peptide 3] (Bz-GH[dF]R[d2Nal]-NH2), for which, in [1], the EC50 is 0.25 nM. The “Concentration at which maximal melanin synthesis activity comparable to 100 nM NDP-alpha-MSH is reached” value in assay [3] is listed as “around 12.3 nM”.

As to `CCCN(CCC)C(=O)[C@H](Cc1c[nH]c2ccccc12)NC(=O)[C@H](CCCNC(=N)N)NC(=O)[C@@H](Cc1ccccc1)NC(=O)[C@H](Cc1c[nH]cn1)NC(=O)CNC(=O)c1ccccc1` [Peptide 5] (Bz-GH[dF]RW-NPr2), in [1], the 50% effective concentration (EC50) is 0.88 nM.

Turning to `N=C(N)NCCC[C@H](NC(=O)[C@@H](Cc1ccccc1)NC(=O)[C@H](Cc1c[nH]cn1)NC(=O)CNC(=O)c1ccccc1)C(=O)N[C@H](Cc1ccccc1)C(N)=O` [Peptide 6] (Bz-GH[dF]R[dF]-NH2), in assay [1], the EC50 amounted to 1.79 nM. Further, in [3], the “Concentration at which maximal melanin synthesis activity comparable to 100 nM NDP-alpha-MSH is reached” value was over 111 nM.

For `N=C(N)NCCC[C@H](NC(=O)[C@@H](Cc1ccccc1)NC(=O)[C@H](Cc1c[nH]cn1)NC(=O)CNC(=O)c1ccccc1)C(=O)N(CCc1c[nH]c2ccccc12)CC(N)=O` [Peptide 7] (Bz-GH[dF]R[Gly(N(CH2)2(3-indolyl))]-NH2), the “Concentration at which maximal melanin synthesis activity comparable to 100 nM NDP-alpha-MSH is reached” value in assay [3] is on record as over 111 nM.

Take `NCC[C@H](NC(=O)[C@@H](Cc1ccccc1)NC(=O)[C@H](Cc1c[nH]cn1)NC(=O)CNC(=O)c1ccccc1)C(=O)N[C@@H](Cc1c[nH]c2ccccc12)C(N)=O` [Peptide 8] (Bz-GH[dF][Dab]W-NH2): in [1], the 50% effective concentration (EC50) came out at 7.51 nM. In addition, the “Concentration at which maximal melanin synthesis activity comparable to 100 nM NDP-alpha-MSH is reached” value in assay [3] is given as over 111 nM.

Regarding “MC1R-agonist pentapeptide 2 (Bz-Gly-His-D-Phe-Arg-L-NaphAla-NH2)”, the EC50 of MC1R activation (cAMP HTRF assay, CHO-K1 cells expressing human MC1R) in [4] turned out to be 0.11 nM.

In the case of “MC1R-agonist pentapeptide 3 (Bz-Gly-His-D-Phe-Arg-D-NaphAla-NH2)”, the EC50 of MC1R activation (cAMP HTRF assay, CHO-K1 cells expressing human MC1R) in assay [4] is 0.25 nM.

Regarding “MC1R-agonist pentapeptide 8 (Bz-Gly-His-D-Phe-Dab-L-Trp-NH2)”, the EC50 of MC1R activation (cAMP HTRF assay, CHO-K1 cells expressing human MC1R) in assay [4] was 7.51 nM.

B1: MC1R-agonist pentapeptide 1 (Bz-Gly-His-D-Phe-Arg-L-Trp-NH2) (peptide)
peptide: Bz-GH[dF]RW-NH2
SMILES: N=C(N)NCCC[C@H](NC(=O)[C@@H](Cc1ccccc1)NC(=O)[C@H](Cc1c[nH]cn1)NC(=O)CNC(=O)c1ccccc1)C(=O)N[C@@H](Cc1c[nH]c2ccccc12)C(N)=O
In the case of B1, the EC50 of MC1R activation (cAMP HTRF assay, CHO-K1 cells expressing human MC1R) in [4] worked out at 0.041 nM.

B2: MC1R-agonist pentapeptide 7 (Bz-Gly-His-D-Phe-Arg-[N-(CH2-3-indolyl)Gly]-NH2) (peptide)
peptide: Bz-GH[dF]R[N(indol-3-ylmethyl)Gly]-NH2
On to B2, for which the EC50 of MC1R activation (cAMP HTRF assay, CHO-K1 cells expressing human MC1R) in assay [4] came out at 4.4 nM.

B3: MC1R-agonist pentapeptide 6 (Bz-Gly-His-D-Phe-Arg-D-Phe-NH2) (peptide)
peptide: Bz-GH[dF]R[dF]-NH2
SMILES: N=C(N)NCCC[C@H](NC(=O)[C@@H](Cc1ccccc1)NC(=O)[C@H](Cc1c[nH]cn1)NC(=O)CNC(=O)c1ccccc1)C(=O)N[C@H](Cc1ccccc1)C(N)=O
In the case of B3, the EC50 of MC1R activation (cAMP HTRF assay, CHO-K1 cells expressing human MC1R) in assay [4] is 1.79 nM.

B4: MC1R-agonist pentapeptide 5 (Bz-Gly-His-D-Phe-Arg-L-Trp-N(Propyl)2) (peptide)
peptide: Bz-GH[dF]RW-NPr2
SMILES: CCCN(CCC)C(=O)[C@H](Cc1c[nH]c2ccccc12)NC(=O)[C@H](CCCNC(=N)N)NC(=O)[C@@H](Cc1ccccc1)NC(=O)[C@H](Cc1c[nH]cn1)NC(=O)CNC(=O)c1ccccc1
B4: in assay [4], the EC50 of MC1R activation (cAMP HTRF assay, CHO-K1 cells expressing human MC1R) was 0.88 nM.

B5: MC1R-agonist pentapeptide 4 (Bz-Gly-His-D-Phe-Arg-D-Trp-N(Propyl)2) (peptide)
peptide: Bz-GH[dF]R[dW]-NPr2
SMILES: CCCN(CCC)C(=O)[C@@H](Cc1c[nH]c2ccccc12)NC(=O)[C@H](CCCNC(=N)N)NC(=O)[C@@H](Cc1ccccc1)NC(=O)[C@H](Cc1c[nH]cn1)NC(=O)CNC(=O)c1ccccc1
Consider B5, for which the EC50 of receptor activation (Aequorin assay, recombinant cells; eight concentrations from 0.01 to 100,000 nM) in assay [5], in assay [8], in [11] and in assay [12] was over 100000 nM throughout. The EC50 of receptor activation (cAMP HTRF assay, CHO-K1 cells; eight concentrations from 0.01 to 100,000 nM) was 136 nM in [6], 877 nM in assay [13], over 100000 nM in assay [14] and over 100000 nM in assay [15]. Also, the EC50 of receptor activation (GTPγ[35S] scintillation proximity assay on CHO-K1 membrane preparations; eight concentrations from 0.01 to 100,000 nM) (with Melatonin receptor MT2R; in assay [7]; in assay [9]; in assay [10]; with Melatonin receptor MT1R) was over 100000 nM in each case. The EC50 of MC1R activation (cAMP HTRF assay, CHO-K1 cells expressing human MC1R) in assay [4] stood at 0.42 nM.
